Data on three substances can be found in PMC10871540.

A word on the stoichiometry N: it is a count of units in the complex or per binding partner. A word on the Kd: it is the equilibrium constant for the complex coming apart.

The target of assay [1] is UNC-6ΔC (C. elegans) (UniProt P34710). Put plainly: SEC. (In general: In gel filtration, larger molecules generally elute earlier.)
Assay [2] deals with biotinylated UNC-6ΔC (C. elegans) (UniProt P34710). Put plainly: SPR. On the technique in general: Surface plasmon resonance follows binding to a sensor surface in real time, without labels.
Sequence of biotinylated UNC-6ΔC (C. elegans) (P34710 22-461, stated change not applied): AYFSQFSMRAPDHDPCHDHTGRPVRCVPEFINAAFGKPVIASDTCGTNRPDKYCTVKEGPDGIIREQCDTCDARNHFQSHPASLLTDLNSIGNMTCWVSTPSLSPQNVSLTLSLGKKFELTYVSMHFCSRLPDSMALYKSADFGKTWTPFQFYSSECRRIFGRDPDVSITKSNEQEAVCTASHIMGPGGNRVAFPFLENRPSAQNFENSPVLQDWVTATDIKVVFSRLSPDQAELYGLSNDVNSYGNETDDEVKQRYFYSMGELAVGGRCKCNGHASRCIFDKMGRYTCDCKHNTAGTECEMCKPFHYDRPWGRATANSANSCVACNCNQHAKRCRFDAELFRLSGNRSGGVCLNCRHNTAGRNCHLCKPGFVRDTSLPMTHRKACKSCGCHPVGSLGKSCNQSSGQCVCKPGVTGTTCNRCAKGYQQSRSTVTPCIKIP
Assay [3] concerns the target UNC-5 N18K ectodomain on yeast (C. elegans). Put plainly: flow cytometry on cells. (In general: In flow cytometry, cells or beads pass a laser one at a time.)
The target in assay [4] is UNC-5 ECD displayed on yeast (C. elegans). The experiment in a line: flow cytometry on cells.
Sequence of UNC-5 ECD displayed on yeast (C. elegans) (Q26261 whole entry, the tested form may be a part): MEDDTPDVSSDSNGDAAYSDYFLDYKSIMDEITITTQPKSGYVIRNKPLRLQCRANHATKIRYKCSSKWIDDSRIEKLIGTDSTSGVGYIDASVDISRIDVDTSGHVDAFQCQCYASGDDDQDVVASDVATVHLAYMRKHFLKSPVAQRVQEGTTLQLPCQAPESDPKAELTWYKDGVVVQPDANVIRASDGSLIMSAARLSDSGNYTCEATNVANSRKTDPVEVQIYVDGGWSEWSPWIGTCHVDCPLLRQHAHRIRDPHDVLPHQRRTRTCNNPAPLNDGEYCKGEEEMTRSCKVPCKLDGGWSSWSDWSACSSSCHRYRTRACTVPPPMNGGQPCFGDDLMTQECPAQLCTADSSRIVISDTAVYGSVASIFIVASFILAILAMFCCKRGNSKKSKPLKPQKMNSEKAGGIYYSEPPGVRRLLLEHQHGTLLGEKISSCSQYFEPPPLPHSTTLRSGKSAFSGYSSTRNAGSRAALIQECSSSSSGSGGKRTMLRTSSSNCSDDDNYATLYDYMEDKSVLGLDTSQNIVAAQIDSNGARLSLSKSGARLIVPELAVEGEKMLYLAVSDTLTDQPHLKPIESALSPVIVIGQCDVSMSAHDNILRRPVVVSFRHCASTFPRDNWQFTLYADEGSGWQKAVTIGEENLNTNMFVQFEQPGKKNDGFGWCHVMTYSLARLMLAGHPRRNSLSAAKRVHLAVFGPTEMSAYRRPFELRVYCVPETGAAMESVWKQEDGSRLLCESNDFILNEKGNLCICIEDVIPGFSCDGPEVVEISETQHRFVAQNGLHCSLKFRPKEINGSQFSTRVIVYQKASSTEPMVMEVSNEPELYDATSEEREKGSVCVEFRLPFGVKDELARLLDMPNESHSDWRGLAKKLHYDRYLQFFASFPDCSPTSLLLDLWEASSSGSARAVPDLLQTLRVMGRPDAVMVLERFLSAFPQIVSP
The target of assay [5] is UNC-5 N188K ectodomain on yeast (C. elegans). Put plainly: flow cytometry on cells.

Sequence of biotinylated UNC-6ΔC (P34710 22-461, stated change not applied): as the sequence (P34710 22-461, stated change not applied) above
Sequence of UNC-6ΔC (C. elegans) (P34710 22-461, stated change not applied): as above

Turning to UNC-5 ECD (receptor), the stoichiometry N in assay [1] was 1. In assay [2], this substance displayed a KD with heparin of 1.2 µM and a Kd of 46 µM.

For UNC-5 ECD R17E R70E (receptor), in assay [2], the KD with heparin was in the range of 50 to 100 µM and the fold loss of affinity against WT UNC-5 came out at 2 fold.

Regarding “biotinylated UNC-6ΔC (from UniProt P34710 22-461) (ligand)”, the Kd in assay [3] came out at 0.0082 µM; in assay [5], 0.0164 µM. The same substance showed a KD with heparin in assay [4] of 0.035 µM.
